Data reported in patent publication US20210221894A1 (DRAGONFLY THERAPEUTICS, published 2021).
Where a chain is given by its changes, count along the chain named. One block for each binder: values may come before it.

Tests used:
[1] = target: T1, full-length form of the extracellular portion of DLL3 expressed on transduced RPMI-8226 cells (Homo sapiens (Human), UniProt Q9NYJ7 27-492); experiment: flow cytometry, RPMI-8226 cells transduced to express full-length extracellular DLL3, fluorophore-conjugated anti-human IgG
T1 construct: also called DLL3-D1-6; DLL3+ RPMI-8226 cells
T1 sequence: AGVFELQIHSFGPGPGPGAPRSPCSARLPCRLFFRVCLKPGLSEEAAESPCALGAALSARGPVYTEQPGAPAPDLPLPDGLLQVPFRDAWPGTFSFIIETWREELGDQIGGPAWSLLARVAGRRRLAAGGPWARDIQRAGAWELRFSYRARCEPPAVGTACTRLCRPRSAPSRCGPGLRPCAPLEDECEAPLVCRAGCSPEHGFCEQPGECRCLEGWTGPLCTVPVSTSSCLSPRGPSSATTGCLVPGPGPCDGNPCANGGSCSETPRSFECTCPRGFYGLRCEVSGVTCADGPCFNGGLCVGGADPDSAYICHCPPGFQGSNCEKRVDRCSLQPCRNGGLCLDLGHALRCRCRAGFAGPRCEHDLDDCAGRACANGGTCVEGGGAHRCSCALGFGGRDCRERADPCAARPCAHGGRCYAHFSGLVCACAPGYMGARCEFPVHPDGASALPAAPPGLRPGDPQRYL
Description: Anti-DLL3 mAbs were diluted and incubated with DLL3⁺ RPMI-8226 cells. The cells were analyzed by flow cytometry and binding of a mAb was detected using a fluorophore conjugated anti-human IgG secondary antibody.

human DLL3-His = target: T2, human DLL3-His (human, UniProt Q9NYJ7 27-492); experiment: SPR (Biacore 8K), 37 C, antibody captured on anti-human Fc, DLL3-His 0.411-300 nM injected, 1:1 fit
T2 construct: also called hDLL3
T2 sequence: T1 sequence
Description: The kinetics of binding of different humanized variants and parental murine 5E7 antibody to human DLL3-His was studied by Surface Plasmon Resonance using a Biacore 8K instrument. Briefly, anti-hFc and anti-mFc IgG proteins were covalently immobilized onto different channels of CMS chip to allow simultaneous analysis of human and murine antibodies. m5E7 was captured on the anti-mouse Fc channel and humanized variants were captured on the anti-human Fc channel at a desired capture level of […] in HBS-EP+ buffer supplemented with 0.1% BSA. Three buffer blanks and human DLL3-His (analyte) at concentrations 0.411-300 nM (in three fold dilutions) were injected over the surface with captured murine or humanized 5E7 for 300 second association time and let dissociate for 600 second at a flow rate of 30 μL/min. The surfaces were subjected to regeneration with three 20-second pulses of 10 mM glycine pH 1.70 at a flow rate of 100 μL/min between every concentration of analyte. The experiment was conducted at 37° C. Data were double referenced and a 1:1 fit model was applied to the sensorgrams in the Biacore Insight Evaluation software.
The kinetic parameters of human DLL3-His binding to murine and humanized variants of 5E7 antibody variants were calculated and shown in Table 39.

[2] = target: T3, recombinant human NKG2D-Fc fusion protein (human, UniProt P26718 73-216); experiment: ELISA, plate-bound recombinant human NKG2D-Fc, anti-human kappa-HRP/TMB
T3 construct: extracellular domain; also called NKG2D-Fc-biotin; not shown: human IgG1 Fc domain
T3 sequence (looked up): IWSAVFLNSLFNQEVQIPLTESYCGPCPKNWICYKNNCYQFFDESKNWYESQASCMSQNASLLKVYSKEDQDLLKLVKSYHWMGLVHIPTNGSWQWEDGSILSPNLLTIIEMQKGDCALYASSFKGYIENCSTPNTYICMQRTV
Description: (§1) The nucleic acid sequences of human, mouse or cynomolgus NKG2D ectodomains were fused with nucleic acid sequences encoding human IgG1 Fc domains and introduced into mammalian cells to be expressed. After purification, NKG2D-Fc fusion proteins were adsorbed to wells of microplates. After blocking the wells with bovine serum albumin to prevent non-specific binding, NKG2D-binding domains were titrated and added to the wells pre-adsorbed with NKG2D-Fc fusion proteins. Primary antibody binding was detected using a secondary antibody which was conjugated to horseradish peroxidase and specifically recognizes a human kappa light chain to avoid Fc cross-reactivity. 3,3′,5,5′-Tetramethylbenzidine (TMB), a substrate for horseradish peroxidase, was added to the wells to visualize the binding signal, whose absorbance was measured at 450 nm and corrected at […]. An NKG2D-binding domain clone, an isotype control or a positive control (comprising heavy chain and light chain variable domains selected from SEQ ID NOs:101-104, or anti-mouse NKG2D clones MI-6 and CX-5, eBioscience, San Diego, Calif.) was added to each well.

[3] = target: T4, recombinant cynomolgus NKG2D-Fc fusion protein (cynomolgus; human, UniProt P61252 73-216); experiment: ELISA, plate-bound recombinant cynomolgus NKG2D-Fc, anti-human kappa-HRP/TMB
T4 construct: extracellular domain; not shown: human IgG1 Fc domain
T4 sequence (looked up): T3 sequence (looked up) with D43N, T133I
Description: as §1

[4] = target: T5, recombinant mouse NKG2D-Fc fusion protein (mouse; human, UniProt O54709 90-232); experiment: competition ELISA: plate-bound mouse Rae-1 delta-Fc, mouse NKG2D-Fc-biotin in solution; blocked ligand Rae-1 delta
T5 construct: extracellular domain; also called Mouse NKG2D-Fc-biotin; not shown: human IgG1 Fc domain
T5 sequence (looked up): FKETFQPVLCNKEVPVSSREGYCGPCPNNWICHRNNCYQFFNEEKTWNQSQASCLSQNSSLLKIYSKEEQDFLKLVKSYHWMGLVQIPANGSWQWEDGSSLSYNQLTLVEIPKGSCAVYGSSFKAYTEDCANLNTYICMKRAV
Description: Recombinant mouse Rae-1 delta-Fc (R&D Systems, Minneapolis, Minn.) was adsorbed to wells of a microplate, and the wells were blocked with bovine serum albumin to reduce non-specific binding. Mouse NKG2D-Fc-biotin was added to the wells followed by NKG2D-binding domains. After incubation and washing, NKG2D-Fc-biotin that remained bound to Rae-1delta-Fc coated wells was detected using streptavidin-HRP and TMB substrate. Absorbance was measured at 450 nm and corrected at […]. After subtracting background, specific binding of NKG2D-binding domains to the NKG2D-Fc proteins was calculated from the percentage of NKG2D-Fc-biotin that was blocked from binding to the Rae-1delta-Fc coated wells.

[5] = target: T3, recombinant human NKG2D-Fc fusion …; experiment: competition ELISA: plate-bound human NKG2D-Fc, saturating ULBP-6-His-biotin as blocked ligand, streptavidin-HRP
Description: Recombinant human NKG2D-Fc proteins were adsorbed to wells of a microplate, and the wells were blocked with bovine serum albumin to reduce non-specific binding. A saturating concentration of ULBP-6-His-biotin was added to the wells, followed by addition of the NKG2D-binding domain clones. After a 2-hour incubation, wells were washed and ULBP-6-His-biotin that remained bound to the NKG2D-Fc coated wells was detected by streptavidin-conjugated to horseradish peroxidase and TMB substrate. Absorbance was measured at 450 nm and corrected at […]. After subtracting background, specific binding of NKG2D-binding domains to the NKG2D-Fc proteins was calculated from the percentage of ULBP-6-His-biotin that was blocked from binding to the NKG2D-Fc proteins in wells.

[6] = target: T5, recombinant mouse NKG2D-Fc fusion …; experiment: ELISA, plate-bound recombinant mouse NKG2D-Fc, anti-human kappa-HRP/TMB
Description: as §1

[7] = target: T6, recombinant human DLL3 (ELISA coat) (human, UniProt Q9NYJ7 27-492); experiment: ELISA, plate coated with recombinant human DLL3 0.5 µg/ml, anti-mouse IgG-HRP
T6 sequence: T1 sequence
Description: (§2) To investigate the binding of anti-DLL3 antibodies to human DLL3, wells of high binding flat-bottom plates were coated with recombinant human DLL3 diluted to 0.5 μg/ml. To assess cross-reactivity of the antibodies to DLL1/DLL4, which are closely related family members to DLL3, plates were coated with recombinant human DLL1 diluted to 1 μg/ml, or human DLL4 diluted to 0.5 μg/ml. […] Binding was detected using anti-mouse IgG-HRP and 3,3′,5,5′-Tetramethylbenzidine (TMB) substrate. Signals were normalized to the corresponding positive control antibody.
Table 38 lists the calculated EC₅₀ based on the binding data from FIG. 24.

recombinant human DLL1 = target: T7, recombinant human DLL1 (human, UniProt O00548 18-540, limits assumed); experiment: ELISA, plate-bound recombinant human DLL1 (1 µg/mL), anti-mouse IgG-HRP/TMB, % of positive control max
T7 sequence (looked up): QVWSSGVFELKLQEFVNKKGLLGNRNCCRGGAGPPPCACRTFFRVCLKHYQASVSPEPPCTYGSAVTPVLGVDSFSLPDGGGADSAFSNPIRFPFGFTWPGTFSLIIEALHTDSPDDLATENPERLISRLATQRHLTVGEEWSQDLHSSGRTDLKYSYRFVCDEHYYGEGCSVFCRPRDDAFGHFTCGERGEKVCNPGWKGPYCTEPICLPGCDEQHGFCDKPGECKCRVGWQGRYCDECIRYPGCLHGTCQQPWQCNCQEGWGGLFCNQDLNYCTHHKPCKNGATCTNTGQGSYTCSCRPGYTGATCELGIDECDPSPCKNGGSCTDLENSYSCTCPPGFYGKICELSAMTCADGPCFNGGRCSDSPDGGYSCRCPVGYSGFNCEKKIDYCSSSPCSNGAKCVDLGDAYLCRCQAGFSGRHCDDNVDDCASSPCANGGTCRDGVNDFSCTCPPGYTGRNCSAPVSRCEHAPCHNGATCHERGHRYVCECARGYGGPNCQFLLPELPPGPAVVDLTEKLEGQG
Description: as §2

[8] = target: T8, extracellular domain (ECD) of human DLL3 (AdipoGen Life Sciences) (human, UniProt Q9NYJ7 27-492); experiment: SPR (Biacore 8K), 37 C, antibody captured on anti-mouse Fc, DLL3 ECD injected, 1:1 fit
T8 construct: Bought and further purified by size exclusion chromatography; also called hDLL3 ECD; DLL3 ECD
T8 sequence: T1 sequence
Description: The binding kinetics of different anti-DLL3 antibodies to recombinant proteins of different domains of human DLL3 were studied by surface plasmon resonance (SPR) using a Biacore™ 8K instrument. These anti-DLL3 antibodies were produced from mouse hybridomas, and each included a heavy chain variable region and light chain variable region described herein. Briefly, antibodies recognizing human IgG Fc and antibodies recognizing mouse IgG Fc were immobilized on different channels of a Biacore™ 8K chip to allow simultaneous analysis of human and murine anti-DLL3 antibodies. Murine anti-DLL3 antibodies were captured on the anti-mouse Fc channel of the Biacore chip. The human anti-DLL3 antibody from Stemcentrx (San Francisco, Calif.) was used as a control and was captured onto anti-human Fc channel of the Biacore™ chip. Different concentrations of DLL3 ECD, DLL3 N-terminal domain, EGF2-6, EGF3-6, EGF4-6, or EGF5-6 domains of DLL3 were injected. Experiments were performed at 37° C. Biacore™ 8K evaluation software was used for all data analysis. To obtain kinetic rate constants double-referenced data were fit to a 1:1 interaction model using Biacore™ 8K Evaluation software (GE Healthcare, Marlborough, Mass.). The equilibrium binding constant KD was determined by the ratio of binding rate constants kd/kₐ.
Table 36 lists the calculated binding kinetics (KD). […] Stemcentrx anti-DLL3 antibody was used as a control.

B3: ADI-27740 (antibody, V domains shown)
VH: QVQLQQWGAGLLKPSETLSLTCAVYGGSFSGYYWSWIRQPPGKGLEWIGEIDHSGSTNYNPSLKSRVTISVDTSKNQFSLKLSSVTAADTAVYYCARARGPWSFDPWGQGTLVTVSS
VL: DIQMTQSPSTLSASVGDRVTITCRASQSIGSWLAWYQQKPGKAPKLLIYKASSLESGVPSRFSGSGSGTEFTLTISSLQPDDFATYYCQQYHSFYTFGGGTKVEIK
notes: also called A40
EC50 (read off the curve) [2]: ~0.4 nM
EC50 (read off the curve) [3]: ~0.3 nM
IC50 (read off the curve) [4]: ~20 nM
IC50 (read off the curve) [5]: ~6 nM
EC50 (read off the curve) [6]: ~0.2 nM

B4: anti-DLL3 antibody clone 9E6 (antibody, V domains shown)
VH: QLQLVQSGPELMRPGETVKISCKASGYTFTTYGMNWVKQAPGKGLKWVGWINTYSGVPTYADDFKGRFAFSLESSASTAFLQINNLKDEDTATYFCARFGNYGFDCWGQGTTLTVSS
VL: DIVMTQSPSSLSVSAGEKVTMSCKSSQSLLNSGNQKNYLAWYQQKPGQPPKLLIYGASTRESGVPDRFTGSGSGTDFTLTISSVQAEDLAVYYCQNDHIYPYTFGGGTKLEIK
notes: Murine antibody from a mouse hybridoma
EC50 [7]: 0.45 nM
binding result (recombinant human DLL1): no binding
Kd [8]: 5.11 nM
koff [8]: 0.00208 s⁻¹
kon [8]: 408000 M⁻¹ s⁻¹

Further lines, results first:

EC50 (read off the curve) [1]: ~3 nM
B1: chimeric protein of murine 5E7 variable regions and human IgG1/Igκ constant regions (antibody, V domains shown)
VH: EVQLQQSGAELVRPGASVKLSCTASGFNIKDDYIHWVKQWPEQGLEWIGWIDSENGDTEYASKFQGKATMTADTSSNTAYLQLSGLTSEDTAVYYCTTSSYYSYDLFVYWGQGTLVTVSA
VL: DVLMTQTPLTLSVPIGQPASISCKSSQSLLHSNGKTYLNWLLQRPGQSPKLLIYLVSKLESGVPDRFSGSGSGTDFTLKISRVEAEDLGVYYCLQTTHLYTFGGGTKLEIK
notes: VH cloned onto human IgG1 CH1-CH2-CH3, VL onto human constant kappa

EC50 (read off the curve) [1]: ~7 nM
Kd (human DLL3-His): 8.72 nM
koff (human DLL3-His): 0.00697 s⁻¹
kon (human DLL3-His): 799000 M⁻¹ s⁻¹
B2: humanized anti-DLL3 antibody h5E7 (antibody, V domains shown)
VH: QVQLVQSGAEVKKPGASVKVSCKASGFNIKDDYIHWVRQAPGQGLEWMGWIDSENGDTEYASKFQGRVTITADTSANTAYMELSSLRSEDTAVYYCATSSYYSYDLFVYWGQGTLVTVSS
VL: DVQMTQSPSSLSASVGDRVTITCKSSQSLLHSNGKTYLNWLQQKPGQAPKLLLYLVSKLESGVPSRFSGSGSGTDYTLTISSLQPEDFATYYCLQTTHLYTFGQGTKLEIK
notes: Expressed as IgG1 mAb: human IgG1 CH1-CH2-CH3 and human constant kappa
